Assay results: the supplement of paper PMC11196671

How the values were obtained:
[1] = BHET released, HPLC; higher = more BHET released; extreme values may be limits of the assay; conditions: 24 h
Experimental: (§1)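 Purified PET hydrolases, 2.5 ug enzyme on 3.5 mg amorphous PET film (aFilm) or crystalline PET powder (cryPow) in 0.5 mL of 50 mM buffer (NaCitrate pH 4.5/5.5, NaPhosphate 6.5/7.5, glycine 8.5/9.5) at 60 or 70 C with shaking for 24 h. Total aromatic product by UV-Vis (260/280 nm, blank-subtracted, normalised per mg enzyme) and individual TPA, MHET, BHET concentrations by UHPLC-DAD at 240 nm; duplicate reactions.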

[2] = terephthalic acid (TPA) released, HPLC; higher = more TPA released; extreme values may be limits of the assay; conditions: 24 h
Experimental: as §1

[3] = MHET released, HPLC; higher = more MHET released; extreme values may be limits of the assay; conditions: 24 h
Experimental: as §1

[4] = PET hydrolysis product formed (TPA+MHET+BHET, UV-Vis) per mg enzyme (mmol/mg enzyme); higher = more PET depolymerisation activity; extreme values may be limits of the assay; conditions: 2 h
Experimental: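 Purified PET hydrolases (His-SUMO cleaved, E. coli C41(DE3) small-scale expression), 2.5 ug enzyme on 3.5 mg amorphous PET film (aFilm) or crystalline PET powder (cryPow) in 0.5 mL of 50 mM buffer (NaCitrate pH 4.5/5.5, NaPhosphate 6.5/7.5, glycine 8.5/9.5) at 60 or 70 C with shaking for 2 h. Soluble aromatic products (TPA+MHET+BHET) were quantified by UV-Vis at 260/280 nm, blank-subtracted against the no-enzyme control, and normalised per mg enzyme; duplicate reactions.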

SNPYQRGPNPTRSALTADGPFSVATYTVSRLSVSGFGGGVIYYPTGTSLTFGGIAMSPGYTADASSLAWLGRRLASHGFVVLVINTNSRFDGPDSRASQLSAALNYLRTSDPSAVRARLDANRLAVAGHSMGGGATLRIAEQNPSLKAAIPLTPWHTQKTFNTSVPVLIVGAEADTVAPVSQHAIPFYQNLPSTTPKVYVELCNASHIAPNSNNAAISVYTISWMKLWVDNDTRYRQFLCNVNDPALCDFRTNNRHCQ [LCC-ICCG DAQI]
Conditions	BHET released, [1] [mM]	MHET released, [3] [mM]	PET hydrolysis product formed, [4]	terephthalic acid, [2] [mM]
PET substrate: aFilm, 60 °C, pH 4.5	0	0.0359	0	0.0488
PET substrate: aFilm, 60 °C, pH 5.5	0.0132	0.267	0.02083	0.279
PET substrate: aFilm, 60 °C, pH 6.5	0	0.562	0.0428	0.541
PET substrate: aFilm, 60 °C, pH 7.5	0.0548	3.69	0.0608	3.26
PET substrate: aFilm, 60 °C, pH 8.5	0.00252	0.3306	0.0525	0.517
PET substrate: aFilm, 60 °C, pH 9.5	0.0577	2.09	0.0903	1.99
PET substrate: aFilm, 70 °C, pH 4.5	0	0	0	0
PET substrate: aFilm, 70 °C, pH 5.5	0.0149	0.189	0.0394	0.1646
PET substrate: aFilm, 70 °C, pH 6.5	0.00777	0.371	0.0829	0.296
PET substrate: aFilm, 70 °C, pH 7.5	0.143	4.52	0.189	2.26
PET substrate: aFilm, 70 °C, pH 8.5	0	0.211	0.0593	0.205
PET substrate: aFilm, 70 °C, pH 9.5	0	1.54	0.241	1.45
PET substrate: cryPow, 60 °C, pH 4.5	0	0.033	0	0.0214
PET substrate: cryPow, 60 °C, pH 5.5	0.00665	0.189	0.0387	0.0856
PET substrate: cryPow, 60 °C, pH 6.5	0	0.254	0.0449	0.0997
PET substrate: cryPow, 60 °C, pH 7.5	0	0.437	0.0986	0.216
PET substrate: cryPow, 60 °C, pH 8.5	0	0.197	0.0373	0.103
PET substrate: cryPow, 60 °C, pH 9.5	0	0.155	0.0245	0.441
PET substrate: cryPow, 70 °C, pH 4.5	0	0	0	0
PET substrate: cryPow, 70 °C, pH 5.5	0	0.0777	0.0166	0.04158
PET substrate: cryPow, 70 °C, pH 6.5	0.00289	0.167	0.0286	0.0736
PET substrate: cryPow, 70 °C, pH 7.5	0	0.424	0.0606	0.401
PET substrate: cryPow, 70 °C, pH 8.5	0	0.164	0.0323	0.0916
PET substrate: cryPow, 70 °C, pH 9.5	0	0.0936	0.0462	0.659

QTNPYARGPNPTAASLEASAGPFTVRSFTVARPVGYGAGTVYYPTNAGGTVGAIAIVPGYTATQSSINWWGPRLASHGFVVITIDTNSTLDKPESRSSQQMAALRQVASLNGTSSSPIYGKVDTARGGVMGWSMGGGGSLISAANNPSLKAAAVMAPWHSSTNFSSVTVPTLIFACENDRIAPVKEYALPIYDSMSLNAKQFLEICGGSHSCACSGNSNQALIGMKGVAWMKRFMDNDTRYSQFACENPNSTAVCDFRTANCS [HotPETase]
Conditions	BHET released, [1] [mM]	MHET released, [3] [mM]	PET hydrolysis product formed, [4]	terephthalic acid, [2] [mM]
PET substrate: aFilm, 60 °C, pH 4.5	0	0	0	0
PET substrate: aFilm, 60 °C, pH 5.5	0	0.282	0	0.359
PET substrate: aFilm, 60 °C, pH 6.5	0	0.534	0.0257	0.226
PET substrate: aFilm, 60 °C, pH 7.5	0.045	3.07	0.0712	1.04
PET substrate: aFilm, 60 °C, pH 8.5	0	0.303	0.0455	0.135
PET substrate: aFilm, 60 °C, pH 9.5	0	1.8	0.0961	1.35
PET substrate: aFilm, 70 °C, pH 4.5	0	0	0	0
PET substrate: aFilm, 70 °C, pH 5.5	0	0	0	0.00384
PET substrate: aFilm, 70 °C, pH 6.5	0	0.0858	0.00383	0.0729
PET substrate: aFilm, 70 °C, pH 7.5	0	0.198	0.0174	0.17
PET substrate: aFilm, 70 °C, pH 8.5	0	0.121	0.0193	0.0776
PET substrate: aFilm, 70 °C, pH 9.5	0	0.077	0.092	0.684
PET substrate: cryPow, 60 °C, pH 4.5	0	0	0.00338	0.0209
PET substrate: cryPow, 60 °C, pH 5.5	0.0125	0.43	0.0775	0.1228
PET substrate: cryPow, 60 °C, pH 6.5	0.00555	0.527	0.106	0.157
PET substrate: cryPow, 60 °C, pH 7.5	0	0.655	0.131	0.3121
PET substrate: cryPow, 60 °C, pH 8.5	0	0.319	0.0736	0.211
PET substrate: cryPow, 60 °C, pH 9.5	0	0.174	0.0954	0.681
PET substrate: cryPow, 70 °C, pH 4.5	0	0	0	0
PET substrate: cryPow, 70 °C, pH 5.5	0	0.163	0.05472	0.07122
PET substrate: cryPow, 70 °C, pH 6.5	0.00798	0.386	0.0748	0.118
PET substrate: cryPow, 70 °C, pH 7.5	0	0.249	0.109	0.262
PET substrate: cryPow, 70 °C, pH 8.5	0	0.268	0.0678	0.113
PET substrate: cryPow, 70 °C, pH 9.5	0	0.0221	0.0796	0.489

ADNPYQRGPDPTNASIEAATGPFAVGTQPIVGASGFGGGQIYYPTDTSQTYGAVVIVPGFISVWAQLAWLGPRLASQGFVVIGIETSTITDLPDPRGDQALAALDWATTRSPVRSRIDRTRLAAAGWSMGGGGLRRAACQRPSLKAIVGMAPWNTEKNWSCVTVPTLFFGGSSDAVASPNDHAKPFYNSITRAEKDYIELCNADHFFPTSANTTMAKYFISWLKRWVDNDTRYTQFLCPGPSTGLFAPVCASMNTCPF [CaPETaseM9]
Conditions	BHET released, [1] [mM]	MHET released, [3] [mM]	PET hydrolysis product formed, [4]	terephthalic acid, [2] [mM]
PET substrate: aFilm, 60 °C, pH 4.5	0	0.00378	0	0.00338
PET substrate: aFilm, 60 °C, pH 5.5	0	0.0574	0	0.0407
PET substrate: aFilm, 60 °C, pH 6.5	0	0.106	0.00371	0.0535
PET substrate: aFilm, 60 °C, pH 7.5	0	0.299	0.0032	0.165
PET substrate: aFilm, 60 °C, pH 8.5	0	0.108	0.0152	0.0537
PET substrate: aFilm, 60 °C, pH 9.5	0	0.123	0	0.297
PET substrate: aFilm, 70 °C, pH 4.5	0	0	0	0
PET substrate: aFilm, 70 °C, pH 5.5	0	0	0	0
PET substrate: aFilm, 70 °C, pH 6.5	0	0	0	0
PET substrate: aFilm, 70 °C, pH 7.5	0	0	0	0
PET substrate: aFilm, 70 °C, pH 8.5	0	0.00345	0	0
PET substrate: aFilm, 70 °C, pH 9.5	0	0	0	0.00887
PET substrate: cryPow, 60 °C, pH 4.5	0.00607	0.03643	0.0116	0.0214
PET substrate: cryPow, 60 °C, pH 5.5	0	0.0852	0.0306	0.0432
PET substrate: cryPow, 60 °C, pH 6.5	0.00315	0.103	0.0384	0.0325
PET substrate: cryPow, 60 °C, pH 7.5	0	0.183	0.0693	0.0946
PET substrate: cryPow, 60 °C, pH 8.5	0	0.0922	0.0382	0.0338
PET substrate: cryPow, 60 °C, pH 9.5	0	0.0663	0.0436	0.336
PET substrate: cryPow, 70 °C, pH 4.5	0	0	0	0
PET substrate: cryPow, 70 °C, pH 5.5	0	0.0148	0.00828	0.0031
PET substrate: cryPow, 70 °C, pH 6.5	0	0.0346	0.0134	0.0109
PET substrate: cryPow, 70 °C, pH 7.5	0	0.0406	0.0293	0.0454
PET substrate: cryPow, 70 °C, pH 8.5	0	0.0381	0.0155	0.0207
PET substrate: cryPow, 70 °C, pH 9.5	0	0	0.0183	0.0926
